System: MS2 coat protein
Assay: apparent KD of MS2 coat protein; designed switch direction (-1 OFF switch, 1 ON switch): 1; higher = weaker reporter binding
Procedure, shortened: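 The apparent KD reported per design is the median over clusters of curve fits to normalised cluster fluorescence. The RNA switches were transcribed on Illumina chips by stalled E. coli RNA polymerase. SNAP-549-labelled MS2 coat protein was titrated from 0.7 or 1.5 nM, doubling up to 3 µM, in Tris-HCl pH 7.5 buffer containing KCl, MgCl2, BSA, DTT, tRNA and Tween-20, with no input, 200 uM small-molecule ligand, or an oligonucleotide input.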

[1] = input ligand: microRNA oligo, concentration not stated
[2] = Eterna round: R95, input ligand: FMN 200 uM
[3] = Eterna round: R95, input ligand: microRNA oligo, concentration not stated
[4] = Eterna round: R95, input ligand: none

GAGAGAUGAUUAGGAUAUCCGGUGAUAAUGAUAGGAGAAGGAAUUGACAUGAGGAUCACCCAUGUGGGAAUAAUCCAGAGAGAG [Parity 23 - Jieux - Same State NG 1] (Eterna round: R96, puzzle: Same State NG 1)
apparent KD of MS2 coat protein (input ligand: FMN 200 uM): 128 nM
apparent KD of MS2 coat protein [1]: 54.4 nM
apparent KD of MS2 coat protein (input ligand: none): 107 nM

GUAGCAUACCGAGGAUAUUCAUAUAAUACAUGAGGAUCACCCAUGUUAAAUAGGCGAAAGCCUUGGGAGAAGGCGGAAUGCUAC [Xeonanis - 20 Mod66] (Eterna round: R96, puzzle: Same State NG 2)
apparent KD of MS2 coat protein (input ligand: FMN 200 uM): 10.5 nM
apparent KD of MS2 coat protein [1]: 13 nM
apparent KD of MS2 coat protein (input ligand: none): 17.1 nM

GUUACAUGAGGAUCACCCAUGUAUGUGUGGGAGUAAGUGUCUUAGGAUAUCUAUGAUUUAAUUUCAGAGAAGGAAGAUUGUUGU [JMF's solution 88] (Eterna round: R96, puzzle: Same State NG 3)
apparent KD of MS2 coat protein (input ligand: FMN 200 uM): 119 nM
apparent KD of MS2 coat protein [1]: 68 nM
apparent KD of MS2 coat protein (input ligand: none): 109 nM

CAAGCUUGGGUCGUCCCGCUCGUCUACAAACAUGAGGAUCACCCAUGUAUGCUCUUCGCAUCAAUUCUAUCUCUUGG [Quxeteor] (puzzle: Sensor for hsa-mir-208a)
apparent KD of MS2 coat protein [2]: 51.5 nM
apparent KD of MS2 coat protein [3]: 51.3 nM
apparent KD of MS2 coat protein [4]: 54.1 nM

GUAGCAUACCGAGGAUAUUCAUAUUACAUGAGGAUCACCCAUGUUAUAUAGGCCAAAAGGCCUUGGGAGAAGGCGGAAUGCUAC [Xeonanis - 20 Mod9] (Eterna round: R96, puzzle: Same State NG 2)
apparent KD of MS2 coat protein (input ligand: FMN 200 uM): 10.3 nM
apparent KD of MS2 coat protein [1]: 9.73 nM
apparent KD of MS2 coat protein (input ligand: none): 14.7 nM

GUGAAGAAUUAAGGAUAUCGAGUCAAGAUGUUAAACAUGAGGAUCACCCAUGUGGGUUGCGGUAUCGAGAAGGUAAAUUACAGG [salish99_SSNG2_r04_502] (Eterna round: R96, puzzle: Same State NG 2)
apparent KD of MS2 coat protein (input ligand: FMN 200 uM): 25.9 nM
apparent KD of MS2 coat protein [1]: 21.1 nM
apparent KD of MS2 coat protein (input ligand: none): 31.7 nM

UCUUGGUUUUUGCUCGUUUUUUGUGUUGAACAUGAGGAUCACCCAUGUAUUGUACGGUCCAAUUUAAUAAUAGUCCG [JMF 65] (puzzle: Sensor for hsa-mir-208a)
apparent KD of MS2 coat protein [2]: 26.6 nM
apparent KD of MS2 coat protein [3]: 19.7 nM
apparent KD of MS2 coat protein [4]: 32.4 nM

GUAGCAUACCGAGGAUAUUCAUAUACAUGAGGAUCACCCAUGUUAAAUAAUAGGCGAAAGCCUUGGGAGAAGGCGGAAUGCUAC [Xeonanis - 20 Mod70] (Eterna round: R96, puzzle: Same State NG 2)
apparent KD of MS2 coat protein (input ligand: FMN 200 uM): 10.3 nM
apparent KD of MS2 coat protein [1]: 9.72 nM
apparent KD of MS2 coat protein (input ligand: none): 12.6 nM

UGUUAUUAGACAGGAUAUUGAAUGUUAAGUAUUAACAUGAGGAUCACCCAUGUAUUUGAUUGGUACAAGAAGGGUCAUGUUCCU [JR_SSNG2_Sub016] (Eterna round: R96, puzzle: Same State NG 2)
apparent KD of MS2 coat protein [1]: 399 nM

UUGAUGAACUGAGGAUAUCGAGUCGUCUGUUUUUACAUGAGGAUCACCCAUGUGGGUUGUGGUAUCGAGAAGGCAGAUUACUUA [JR_SSNG2_Sub031] (Eterna round: R96, puzzle: Same State NG 2)
apparent KD of MS2 coat protein (input ligand: FMN 200 uM): 1670 nM
apparent KD of MS2 coat protein [1]: 974 nM
apparent KD of MS2 coat protein (input ligand: none): 2150 nM

GGGAGAGUUACAGGAUAUGGUGAGGAUUACCCACUAGAAGGGUAAACAUGUGAAUCGGACAUGAGGAUCACCCAUGUUGGGCGU (Eterna round: R96, puzzle: Same State NG 1)
apparent KD of MS2 coat protein (input ligand: FMN 200 uM): 162 nM
apparent KD of MS2 coat protein [1]: 160 nM
apparent KD of MS2 coat protein (input ligand: none): 203 nM

CUAAAACAUGAGGAUCACCCAUGUCAACAAAGUCGAGGAUAUGGGCAAAUAAAAUAAGAACCAGAAGGCGAAUAAC [salish99_SS1_r3_014] (puzzle: Same State 1)
apparent KD of MS2 coat protein [3]: 222 nM

AGAUGUUAAUCAGGAUAUGGGCACAUGAGGAUCACCCAUGUAUUUUCGAUGCUAUGUGGAGACGUCUAGAAGGGAUGGCUAACA [SameState NG2 #86] (Eterna round: R96, puzzle: Same State NG 2)
apparent KD of MS2 coat protein (input ligand: FMN 200 uM): 165 nM
apparent KD of MS2 coat protein [1]: 126 nM
apparent KD of MS2 coat protein (input ligand: none): 185 nM

AGUCCAGCCUGAGCUGGACAAAAGCAUGUACAUGAGGAUCACCCAUGUCAUGUACAAGCUUUUUGCUCGAAAUAAUA [Mat - hsa-mir-208a - Mod of JL - D32] (puzzle: Sensor for hsa-mir-208a)
apparent KD of MS2 coat protein [2]: 653 nM
apparent KD of MS2 coat protein [3]: 14.6 nM
apparent KD of MS2 coat protein [4]: 938 nM

GAUUAACAUGAGGAUCACCCAUGUCGUUAUAUGGGAGGAUAUACGUGGACCGUAGUCCGCGUAGAAGGCCUAAUUG [Mat - Same State 1 - Mod of JL - D23] (Eterna round: R96, puzzle: Same State 1)
apparent KD of MS2 coat protein (input ligand: FMN 200 uM): 67.3 nM
apparent KD of MS2 coat protein [1]: 115 nM
apparent KD of MS2 coat protein (input ligand: none): 262 nM

CUCCGGAAGCGAGGAUAUGCAGAGGAUCACCCUGCAGAAGGCGCAAAAGCGAGGAUAUGCAGAGGAUCACCCUGCAGAAGGCGC [pwkr ssNG DX.33] (Eterna round: R96, puzzle: Same State NG 1)
apparent KD of MS2 coat protein (input ligand: FMN 200 uM): 10.2 nM
apparent KD of MS2 coat protein [1]: 33.3 nM
apparent KD of MS2 coat protein (input ligand: none): 39.9 nM

GGUUUAGUCAGGCACAAUUGCGCCUGAAAACAUGAGGAUCACCCAUGUUUGGGACAAGCUUUGCUCCUCGUCUUGCA [Enzati] (puzzle: Sensor for hsa-mir-208a)
apparent KD of MS2 coat protein [2]: 306 nM
apparent KD of MS2 coat protein [3]: 68.1 nM
apparent KD of MS2 coat protein [4]: 385 nM

GGUCCGGCCUGAGCUGGACCGAAGCAUGUACAUGAGGAUCACCCAUGUCAUGUACAGGCUUCUUGCUCGUCUUGUUG [JL-shm-2.15 JL Mod] (puzzle: Sensor for hsa-mir-208a)
apparent KD of MS2 coat protein [2]: 90.3 nM
apparent KD of MS2 coat protein [3]: 16.6 nM
apparent KD of MS2 coat protein [4]: 219 nM

ACGCAGCUGGGCAAGGAUAUCGGUGGUAAAACAUGAGGAUCACCCAUGUCCGAAGCUCGGACUUCCGAGAAGGUGCCCGGCUGCG [Soinraesar Omei Mod 8] (puzzle: Same State 2)
apparent KD of MS2 coat protein [2]: 20.1 nM
apparent KD of MS2 coat protein [3]: 119 nM
apparent KD of MS2 coat protein [4]: 238 nM

AUAAGUUCGAUGCUCGUCUCUCCGUACAAACAUGAGGAUCACCCAUGUGAUUGGACAAAAGCCCAAUCAGUAUGGCC [Cebeince] (puzzle: Sensor for hsa-mir-208a)
apparent KD of MS2 coat protein [2]: 35.9 nM
apparent KD of MS2 coat protein [3]: 21.4 nM
apparent KD of MS2 coat protein [4]: 40.9 nM

CGUCCAGCCUGAGCUGGACAAAAGCAUGUACAUGAGGAUCACCCAUGUUCAUGUACAAGCUUUUUGCUCGUCUUAGC [salish99_208a_r3_075] (Eterna round: R96, puzzle: Sensor for hsa-mir-208a)
apparent KD of MS2 coat protein (input ligand: FMN 200 uM): 598 nM
apparent KD of MS2 coat protein [1]: 13.8 nM
apparent KD of MS2 coat protein (input ligand: none): 616 nM

AGGCUCAGACUAGGAUAUAUGUGGUCACAUGAGGAUCACCCAUGUCUCGAGCUUCGGCUCGAGGCAUAGAAGGAGUCUGAGCCA [SSNG2/5-D1] (Eterna round: R96, puzzle: Same State NG 2)
apparent KD of MS2 coat protein (input ligand: FMN 200 uM): 459 nM
apparent KD of MS2 coat protein [1]: 14 nM
apparent KD of MS2 coat protein (input ligand: none): 713 nM

GUGGUGUAGAUACAGGAUAUGUUGCUCGUAACAUGAGGAUCACCCAUGUAUCUAUGAGAUAAAAUGCAGAAGGGUGCACACCACU [Mat - Same State 2 - Mod of UCT - D75] (puzzle: Same State 2)
apparent KD of MS2 coat protein [3]: 245 nM

AACAUGUGGUGUUACAUGAGGAUCACCCAUGUGGCAAAAGCUGAGGAUAUCAUUAAACCCAUGAAUGAGAAGGUAGGAUCACAA [AK SSNG3-V2-20] (Eterna round: R96, puzzle: Same State NG 3)
apparent KD of MS2 coat protein (input ligand: FMN 200 uM): 85.2 nM
apparent KD of MS2 coat protein [1]: 124 nM
apparent KD of MS2 coat protein (input ligand: none): 127 nM

AUUAUUAGUGCAGGAUAUGAUUAACAUGAGGAUCACCCAUGUGGUGUUGUGAGUAAGGAGAGUGAUCAGAAGGGCAUUUUUUUU [JMF's solution 21] (Eterna round: R96, puzzle: Same State NG 2)
apparent KD of MS2 coat protein (input ligand: FMN 200 uM): 659 nM
apparent KD of MS2 coat protein [1]: 333 nM
apparent KD of MS2 coat protein (input ligand: none): 406 nM

UUACUCAUGUAAGGAUAUGCAGCCGUUUCGGCUGCAGAAGGUACUAUAAUACAUGAGGAUCACCCAUGUCUUUUUAAUUUUUAC [JL SSNG1 1.28] (Eterna round: R96, puzzle: Same State NG 1)
apparent KD of MS2 coat protein (input ligand: FMN 200 uM): 87.5 nM
apparent KD of MS2 coat protein [1]: 24.4 nM
apparent KD of MS2 coat protein (input ligand: none): 54.2 nM

AAGGUCUUCGUACAGGAUAUGCACUUGUGCACAUGAGGAUCACCCAUGUGGGAAAAGGUCACAGGGCAGAAGGGUAUUUAUAAAA [Erriti] (puzzle: Same State 2)
apparent KD of MS2 coat protein [2]: 39.4 nM
apparent KD of MS2 coat protein [3]: 66.6 nM
apparent KD of MS2 coat protein [4]: 103 nM

GUAUAACAUGAGGAUCACCCAUGUCAACAAAGUCGAGGAUAUGGGCAUAUAAUAUAUGAACCAGAAGGCGAAUAUG [Mat - Same State 1 - Mod of UCT - D36] (puzzle: Same State 1)
apparent KD of MS2 coat protein [2]: 34.2 nM
apparent KD of MS2 coat protein [3]: 37.9 nM
apparent KD of MS2 coat protein [4]: 56.7 nM

AAAGAACAUGAGGAUCACCCAUGUGGAAGAGGCACAGGAUAUCACCUCGCAAGUGCAAGGUGAGAAGGGUGAUGAU [Islaonen] (puzzle: Same State 1)
apparent KD of MS2 coat protein [2]: 123 nM
apparent KD of MS2 coat protein [3]: 425 nM
apparent KD of MS2 coat protein [4]: 205 nM

UACCAUAGUAUAUUGGUGCAAGCUUUUUGACAUGAGGAUCACCCAUGUACUCGUCUUAUGUGCAGUCCGUAGACUGC [JL-shm-2.22 Brourd mod] (puzzle: Sensor for hsa-mir-208a)
apparent KD of MS2 coat protein [2]: 57.8 nM
apparent KD of MS2 coat protein [3]: 13 nM
apparent KD of MS2 coat protein [4]: 54.6 nM

ACUCUACAUGAGGAUCACCCAUGUUGAGCCCAUCAAGGAUAUGGGUCUUAAUCGCGGGUGCCAGAAGGUGAUGGUU [Xesove] (Eterna round: R96, puzzle: Same State 1)
apparent KD of MS2 coat protein (input ligand: FMN 200 uM): 313 nM
apparent KD of MS2 coat protein [1]: 46.8 nM
apparent KD of MS2 coat protein (input ligand: none): 94.3 nM

— the supplement of paper PMC9170038
